Results from patent US20030157096A1.

Assays:
[1] = target: IL-TIF protein (human) (human) (UniProt Q9GZX6); test: cell-based or functional assay
[2] = target: zcytor11 and CRF2-4 receptors co-expressed on transfected BaF3 or BHK cells (human) (UniProt Q08334); test: cell-based or functional assay
zcytor11 and CRF2-4 receptors co-expressed on transfected BaF3 or BHK cells (human), sequence (chain, as listed by the source limits assumed, chain 1 of 2): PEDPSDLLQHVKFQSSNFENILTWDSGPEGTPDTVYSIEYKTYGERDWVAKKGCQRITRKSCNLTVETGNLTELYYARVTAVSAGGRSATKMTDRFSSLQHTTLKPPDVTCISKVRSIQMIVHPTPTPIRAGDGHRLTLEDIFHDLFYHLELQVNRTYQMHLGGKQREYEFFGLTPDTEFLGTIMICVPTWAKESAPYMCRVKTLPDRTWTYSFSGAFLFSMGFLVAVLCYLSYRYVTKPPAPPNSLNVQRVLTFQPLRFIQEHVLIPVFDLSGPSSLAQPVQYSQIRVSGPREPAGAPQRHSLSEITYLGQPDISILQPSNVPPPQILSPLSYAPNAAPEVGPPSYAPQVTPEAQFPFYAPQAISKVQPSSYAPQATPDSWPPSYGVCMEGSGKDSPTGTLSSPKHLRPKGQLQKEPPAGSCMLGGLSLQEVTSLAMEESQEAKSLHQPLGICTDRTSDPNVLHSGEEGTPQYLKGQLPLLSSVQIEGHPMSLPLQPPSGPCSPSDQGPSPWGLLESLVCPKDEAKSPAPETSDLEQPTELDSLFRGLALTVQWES
zcytor11 and CRF2-4 receptors co-expressed on transfected BaF3 or BHK cells (human), sequence (Q08334 20-325 limits assumed, chain 2 of 2): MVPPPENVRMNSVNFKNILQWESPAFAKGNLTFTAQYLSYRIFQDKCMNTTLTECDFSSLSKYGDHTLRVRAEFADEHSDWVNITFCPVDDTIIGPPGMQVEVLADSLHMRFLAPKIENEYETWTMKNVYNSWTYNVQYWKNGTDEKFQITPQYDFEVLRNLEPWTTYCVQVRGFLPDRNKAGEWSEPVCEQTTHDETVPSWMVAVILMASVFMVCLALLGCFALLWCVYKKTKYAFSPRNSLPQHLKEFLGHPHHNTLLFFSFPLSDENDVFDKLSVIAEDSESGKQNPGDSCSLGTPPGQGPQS

IL-TIF protein (human) (human), sequence (Q9GZX6 34-179 limits assumed): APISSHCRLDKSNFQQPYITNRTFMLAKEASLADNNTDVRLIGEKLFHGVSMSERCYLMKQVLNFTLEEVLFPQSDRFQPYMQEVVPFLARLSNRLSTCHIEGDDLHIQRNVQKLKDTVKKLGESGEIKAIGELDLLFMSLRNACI
CRF2-4/zcytor11-Fc soluble receptor heterodimer (Fc fusion), sequence (chain): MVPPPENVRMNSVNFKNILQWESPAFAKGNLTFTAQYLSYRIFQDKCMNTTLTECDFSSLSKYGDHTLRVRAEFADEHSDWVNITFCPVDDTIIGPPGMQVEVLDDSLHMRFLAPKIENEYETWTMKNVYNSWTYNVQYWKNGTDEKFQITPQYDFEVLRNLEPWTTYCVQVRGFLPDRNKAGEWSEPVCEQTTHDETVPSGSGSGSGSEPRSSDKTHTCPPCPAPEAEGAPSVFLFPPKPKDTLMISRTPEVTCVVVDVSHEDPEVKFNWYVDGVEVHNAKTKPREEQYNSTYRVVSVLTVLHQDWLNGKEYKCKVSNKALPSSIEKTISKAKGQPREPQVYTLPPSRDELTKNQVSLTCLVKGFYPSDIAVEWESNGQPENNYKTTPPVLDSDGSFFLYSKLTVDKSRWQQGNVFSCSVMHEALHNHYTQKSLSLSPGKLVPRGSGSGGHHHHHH
CRF2-4/zcytor11-Fc soluble receptor heterodimer (Fc fusion), sequence (chain): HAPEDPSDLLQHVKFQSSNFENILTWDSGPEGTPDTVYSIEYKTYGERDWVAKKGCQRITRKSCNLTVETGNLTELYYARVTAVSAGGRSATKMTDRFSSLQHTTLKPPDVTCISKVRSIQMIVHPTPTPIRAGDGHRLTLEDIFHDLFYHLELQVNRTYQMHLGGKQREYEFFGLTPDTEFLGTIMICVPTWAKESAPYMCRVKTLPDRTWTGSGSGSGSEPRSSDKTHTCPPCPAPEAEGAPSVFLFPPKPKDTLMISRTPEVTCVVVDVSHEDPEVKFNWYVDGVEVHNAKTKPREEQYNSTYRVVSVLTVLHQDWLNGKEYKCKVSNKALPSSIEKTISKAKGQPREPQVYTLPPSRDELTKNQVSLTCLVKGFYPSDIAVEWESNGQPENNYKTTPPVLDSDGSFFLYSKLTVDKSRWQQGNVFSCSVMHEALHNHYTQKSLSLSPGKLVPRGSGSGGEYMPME

Substance | inhibition of IL-TIF-induced proliferation (Alamar Blue), concentration at which inhibition was barely detectable [1] [ng/mL] | inhibition of IL-TIF-induced proliferation (Alamar Blue), concentration giving complete inhibition [1] [ng/mL] | inhibition of IL-TIF-induced proliferation (Alamar Blue), concentration giving partial inhibition [1] [ng/mL] | Alamar Blue proliferation of BaF3/CRF2-4/zcytor11 cells, fold over background [2] [fold]
CRF2-4/zcytor11-Fc soluble receptor heterodimer (Fc fusion) | 1.6 | 25 to 200 | 3.1 to 12.5 | 
IL-TIF protein (human) (from UniProt Q9GZX6 34-179) (ligand) |  |  |  | 30
